Experimental data published in patent US20210403552A1 (SHANGHAI GENBASE BIOTECHNOLOGY, published 2021).
Changes are numbered by the printed parent chain. Blank lines part the entries; values can stand above or below the binder they belong to.

Assays:
human CLDN18.2 [1] = target: T1, human CLDN18.2 (human); experiment: imaging cytometry (% fluorescent cells), HEK293T-hCLDN18.2 cells
T1 construct: over-expressed on HEK293T or OCUM-1 cells by lentivirus; KATO-III and NUGC4 gastric cancer cells express it naturally; also called hCLDN18.2; hCLDNA18.2
Description: (§1) 10,000 cells were plated in 100 μL of DMEM containing 10% FBS per well in a flat-bottomed 96-well plate. After the cells adhered or were settled to the bottom of the wells overnight, the supernatant was removed on the next day. 3-Fold gradient dilution of antibody was performed by diluting 1/3 of the total volume (i.e., 100 μL) in 200 μL of DMEM. 100 μL of the diluted antibody (the supernatants of fused clones or subclones was used in the screening) was added to each well of the cell plate, 100 μL of DMEM was added to the corresponding negative control well, and incubation was carried out for 1 hour at room temperature. After removing the supernatant, 100 μL of secondary antibody (5 μg/mL, diluted in DMEM) was added to each well, and incubated at room temperature for 0.5 hours. The supernatant was removed after staining, followed by washing with PBS once. 100 μL of PBS was added to each well, and then reading was carried out on the cytometer.
A full-field scanning cytometer (Nexcelom, Celigo® Image Cytometer) was used to measure the readings of the experimental plate. During the measurement, high-speed scanning imaging of the cells in the well was simultaneously performed in the green fluorescent channel corresponding to the secondary antibody and in the bright field channel. The cells that bound the antibody were counted in the image obtained from the green fluorescent channel under the parameters set in accordance with the morphology and fluorescence intensity of the fluorescently labeled cells, and the adhered cells were counted in the image obtained from the bright field channel under the parameters set in accordance with the morphology of the cells. […] The data analysis was performed using GraphPad.

human CLDN18.2 [2] = target: T1, human CLDN18.2; experiment: cell-based or functional assay
human CLDN18.2 [3] = target: T1, human CLDN18.2; experiment: cell-based or functional assay; remark: listed apart in the source
human CLDN18.2 [4] = target: T1, human CLDN18.2; experiment: imaging cytometry (% fluorescent cells), HEK293-hCLDN18.2 cells
Description: (§2) HEK293T-hCLDN18.2 and OCUM-1-hCLDN18.2 expressing human CLDN18.2 (hCLDN18.2), or HEK293T-mCLDN18.2 expressing mouse CLDN18.2 (mCLDN18.2) and the corresponding negative control cell line HEK293T were used; or HEK293T-hCLDN18.1 and CHOS-hCLDN18.1 expressing human CLDN18.1 (hCLDN18.1) were used. DyLight488 goat anti-mouse IgG (Abcam, Catalog No. ab97015) or DyLight488 goat anti-human IgG (Abcam, Catalog No. ab97003) was used as secondary antibody. Binding curves were generated by using the following method.
as §1
(§3) A full-field scanning cytometer (Nexcelom, Celigo® Image Cytometer) was used to measure the readings of the experimental plate. During the measurement, high-speed scanning imaging of the cells in the well was simultaneously performed in the green fluorescent channel corresponding to the secondary antibody and in the bright field channel. The cells that bound the antibody were counted in the image obtained from the green fluorescent channel under the parameters set in accordance with the morphology and fluorescence intensity of the fluorescently labeled cells, and the adhered cells were counted in the image obtained from the bright field channel under the parameters set in accordance with the morphology of the cells.

human CLDN18.2 [5] = target: T1, human CLDN18.2; experiment: imaging cytometry (% fluorescent cells), OCUM1-hCLDN18.2 cells
Description: as §2, §1, §3

human CLDN18.1 = target: T2, human CLDN18.1 (human, UniProt P56856 1-261); experiment: imaging cytometry, CHOS-hCLDN18.1 cells
T2 construct: over-expressed on HEK293T or CHOS cells by lentivirus; also called hCLDN18.1
T2 sequence (P56856 whole entry): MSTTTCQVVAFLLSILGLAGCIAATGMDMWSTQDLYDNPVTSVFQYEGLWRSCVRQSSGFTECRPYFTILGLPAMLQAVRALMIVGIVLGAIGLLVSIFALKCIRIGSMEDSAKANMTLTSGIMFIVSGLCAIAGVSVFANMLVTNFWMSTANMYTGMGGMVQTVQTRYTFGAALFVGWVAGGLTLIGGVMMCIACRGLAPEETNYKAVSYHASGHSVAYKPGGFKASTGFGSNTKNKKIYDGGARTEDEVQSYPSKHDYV
Description: as §2, §1, §3

mouse CLDN18.2 = target: T3, mouse CLDN18.2 (mouse, UniProt P56857 10-264); experiment: imaging cytometry (% fluorescent cells), HEK293-mCLDN18.2 cells
T3 construct: over-expressed on HEK293T cells by lentivirus; also called mCLDN18.2; murine CLDN18.2
T3 chain: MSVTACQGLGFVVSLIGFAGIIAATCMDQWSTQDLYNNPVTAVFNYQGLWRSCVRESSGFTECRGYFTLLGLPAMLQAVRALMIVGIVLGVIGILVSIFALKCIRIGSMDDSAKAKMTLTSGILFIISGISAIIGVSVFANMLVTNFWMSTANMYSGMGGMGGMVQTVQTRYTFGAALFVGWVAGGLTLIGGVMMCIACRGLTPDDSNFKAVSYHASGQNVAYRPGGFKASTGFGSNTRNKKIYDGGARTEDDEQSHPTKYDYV
Description: as §2, §1, §3

EC50 (human CLDN18.2 [1]): 0.104 µg/mL | CDC EC50, HEK293T-hCLDN18.2 target cells, human serum (human CLDN18.2 [2]): 1.86 µg/mL | ADCC EC50, HEK293T-hCLDN18.2 target cells, human PBMC effectors (human CLDN18.2 [3]): 0.008 µg/mL
B1: 9F3-chIgG1 (antibody, V domains shown)
VH: EVRLQQSGPELVKPGASVKIPCKASGYKFTDYNMDWVKQSHGKSLEWIGEINPNNGGTIYNQKFKGKATLTVDKSSSTAYMELRSLTSEDTAVYYCARIYYGNSFAYWGQGTLVTVSS
VL: DIVMTQSPSSLTVTAGEKVTMSCKSSQSLLNSGNLKNYLTWYQQKPGQPPKLLIYWASTRESGVPDRFTGSGSGTDFTLTISSVQAEDLAVYYCQNDYFYPLTFGAGTKLEIKR
notes: human-mouse chimeric antibody, human IgG1/kappa constant regions

EC50 (human CLDN18.2 [4]): 0.053 µg/mL | EC50 (human CLDN18.2 [5]): 0.15 µg/mL | binding result (human CLDN18.1): no binding | EC50 (mouse CLDN18.2): 0.043 µg/mL
B2: 9F3 (antibody, V domains shown)
VH: B1 VH
VL: DIVMTQSPSSLTVTAGEKVTMSCKSSQSLLNSGNLKNYLTWYQQKPGQPPKLLIYWASTRESGVPDRFTGSGSGTDFTLTISSVQAEDLAVYYCQNDYFYPLTFGAGTKLEIK
notes: murine monoclonal antibody purified from hybridoma culture supernatant

EC50 (human CLDN18.2 [1]): 0.03 µg/mL | CDC EC50, HEK293T-hCLDN18.2 target cells, human serum (human CLDN18.2 [2]): 1.65 µg/mL | ADCC EC50, HEK293T-hCLDN18.2 target cells, human PBMC effectors (human CLDN18.2 [3]): 0.001 µg/mL
B3: 10B11-chIgG1 (antibody, V domains shown)
VH: QVQMKESGAELVKPGASVKISCKASGYAFSTYWMDWVKQRPGKGLEWIGQIYPGNGDTNYNGKFKGKATLTADKSSSTADMQLSSLTSEDSAVYFCARLGYGNSFTYWGQGTLVTVSA
VL: B1 VL with V3Q, M4V, L35Q, S73F, D97A, L102F, A106S
notes: as for B1

EC50 (human CLDN18.2 [4]): 0.038 µg/mL | EC50 (human CLDN18.2 [5]): 0.135 µg/mL | binding result (human CLDN18.1): no binding | EC50 (mouse CLDN18.2): 0.035 µg/mL
B4: 10B11 (antibody, V domains shown)
VH: B3 VH
VL: B2 VL with V3Q, M4V, L35Q, S73F, D97A, L102F, A106S
notes: as for B2

EC50 (human CLDN18.2 [4]): 0.04 µg/mL | EC50 (human CLDN18.2 [5]): 0.146 µg/mL | binding result (human CLDN18.1): no binding | EC50 (mouse CLDN18.2): 0.032 µg/mL
B5: 37B1 (antibody, V domains shown)
VH: EVRLQQSGPELVKPGASVKMSCKASGYSFTDYNMHWVKQSHGKSPEWVGYINPNKGGTGYNQKFKGKATLTVNKSSSTANMELRSLTSEDSAVYYCARIWYGNSFAYWGQGTLVTVSA
VL: B2 VL with I2V, L35Q, Y93F, L102F, A106S
notes: as for B2

EC50 (human CLDN18.2 [4]): 0.041 µg/mL | EC50 (human CLDN18.2 [5]): 0.142 µg/mL | binding result (human CLDN18.1): no binding | EC50 (mouse CLDN18.2): 0.033 µg/mL
B6: 27B5 (antibody, V domains shown)
VH: QVQLQQPGTELVKPGASVKLSCKASGYTFTSYWMHWVKQRPGQGLEWIGNIHPSNGGSNHNEKFKSKATLTVDKSSSTAYMQLSSLTSEDSAVYYCAPIYYGNSLAYWGHGTLVTVSA
VL: B2 VL with I2V, L35Q, I54L, D97S, L102F, A106S
notes: as for B2

EC50 (human CLDN18.2 [4]): 0.034 µg/mL | EC50 (human CLDN18.2 [5]): 0.097 µg/mL | binding result (human CLDN18.1): no binding | EC50 (mouse CLDN18.2): 0.026 µg/mL
B7: 44A8 (antibody, V domains shown)
VH: EVRLQQSGPELVKPGASVKMSCKASGYTFTDYNMHWVKQSHGKSLEWIGYINPKNGGIRYNQKFTGKATLTVNKSSSTAYMELRSLTSEDSAVYYCARGGYYGNTLDNWGQGTSVTVSS
VL: B2 VL with V13L, L35Q, R60S, V91I, D97A, L102W, A106G
notes: as for B2

EC50 (human CLDN18.2 [4]): 0.028 µg/mL | EC50 (human CLDN18.2 [5]): 0.092 µg/mL | binding result (human CLDN18.1): no binding | EC50 (mouse CLDN18.2): 0.026 µg/mL
B8: 44F7 (antibody, V domains shown)
VH: QVQLQQSGAELVRPGASVKMSCKASGYTFTSYNMHWVKQAPRQGLEWIGTIYPGNGDTSYNQKFKGKATLTVDKSSSTAYMQLSSLTSEDSAVYFCARGGYYGNSLDYWGQGTTLTVSS
VL: B2 VL with V3Q, L35Q, D97A, F99Y, L102F, A106S
notes: as for B2
